According to the RNAGym collection of RNA variant scans (doi:10.1093/nar/gkz1192):

B1: CPEB3 Ribozyme (parent)
chain: UAACAGGGGGCCACAGCAGAAGCGUUCACGUCGCAGCCCCUGUCAGAUUCUGGUGAAUCUGCGAAUUCUGCUGUAUAUCUC

Variants of: B1
Assay: self-cleavage, relative activity (ratio to wild type); higher = more cleavage; in vitro, sequencing
Procedure, shortened: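 Relative activity compares each variant's cleaved/total read fraction with that of the unmutated ribozyme. To get these fractions, barcoded CPEB3 ribozyme libraries from rounds of error-prone PCR were transcribed with T7 RNA polymerase for 5 hours at 37°C and then given 15 min of DNase I treatment before EDTA was added. The RNAs were reverse transcribed with template switching and sequenced on Illumina, and DNA sequencing linked barcodes to variants. A minimum of 5 reads applied, and three batches were averaged.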

Variant	self-cleavage
C68G U72C	0.48
U72A C79U	0.68
U69C U72C	0.37
U69C U72G	0.35
U69C U72A	0.36
U72C C79A	1.3
U72C C79U	1.16
U72C C79G	1.05
U67A U76C	0.58
U67A U76A	0.68
U67A C71A	0.3
U67A C71G	0.33
U67A C71U	0.11
U72G C79U	1.21
C68G U69C	0.27
C71U U72G	0.62
C71U U72C	1.02
U69G	0.74
U69A	0.63
U69C	0.59
U69C U76G	0.79
U69C U76C	0.66
U69C U76A	0.75
U72G	0.98

Variant	self-cleavage
U72C	1.13
U72A	0.81
U67G U69C	0.5
U72A C81A	1.26
U72A C81U	1.11
U72A C81G	1.24
U69G C71A	0.09
G70C C71U	0.3
C68G U74A	0.43
C68A U78C	0.5
U74A U80C	1.24
U74A U80A	1.26
U74C A77G	1.32
U74C A77U	1.26
U67C C68U	0.46
U67C C68A	0.38
U69C C71A	0.2
U69C C71G	0.24
G73C	1.25
G73A	1.27
G73U	1.28
U67G U72C	0.14
U67G U72A	0.36
U69A U72G	0.49

Variant	self-cleavage
U69A U72A	0.33
U69A U72C	0.5
C71G A75G	0.62
G70A	0.55
G70U	0.37
G70C	0.31
U69C A75G	0.5
U69C A75U	0.44
G70U U80A	0.67
G70C U78A	0.17
U67C C79A	0.49
U67C C79U	0.32
C71U U78A	0.65
C71U U78C	0.77
U72C U78C	1.15
U72C U78A	1.2
U72C U78G	1.16
C68A A75U	0.28
C71A A75U	0.17
U72G G73A	1.3
G70U A77G	0.4
U67G C79U	0.51
U69A A77U	0.75
U69A A77G	0.72

Variant	self-cleavage
U69C G73U	0.88
U69C G73A	0.99
C68A G70U	0.36
U72A U76G	0.54
U72A U76A	0.72
U72A U76C	0.97
U69C G70U	0.25
U69C G70A	0.24
U69C G70C	0.22
C68U U78A	1.01
C68U U78C	1.03
C68G	0.47
C68A	0.41
C68U	1.06
U74A A77G	1.26
C68A C81A	0.6
C68A U80C	0.53
U67A U80C	0.58
U67A U80A	0.58
U69C A77G	0.67
U69C A77U	0.77
U69C A77C	0.54
U69G A75U	0.78
U69G U78A	0.45

Variant	self-cleavage
U69G U78C	0.71
U72C G73U	1.48
U72C G73A	1.25
U67A C81G	0.92
C71G A77U	0.13
U67A G73A	1.05
U67A G73C	1.07
C68A U74G	0.68
C68A U74C	0.86
C68A U74A	0.52
U72A U78A	0.72
U72A U78C	0.8
U72C A77C	1.07
U72C A77U	1.21
U72C A77G	1.18
U67A U78A	0.64
U67A U78C	0.52
G73A U76C	1.26
U72C U80G	1.23
U72C U80C	1.24
U72C U80A	1.24
U67C C71G	0.21
U67C C81G	0.16
U67C C81U	0.37

Variant	self-cleavage
G70A U76A	0.8
G70A U76C	0.75
U69G C81A	0.86
U72C U76C	1.16
U72C U76G	1.23
U72C U76A	1.23
C68U U74C	1.19
C68A U76C	0.54
U72G U74C	1.04
U67A U74A	0.8
U67A U74G	0.81
U67A U74C	0.92
U69C U80C	0.52
U69C U80G	0.73
U69C U80A	0.79
U67A U69A	0.3
U67A U69C	0.4
G70U U72C	0.42
G70U U72G	0.35
U69A U80G	0.76
U69A U80C	0.56
U69A U80A	0.74
G73A A77G	1.31
U69A C81U	0.84

Variant	self-cleavage
U69A C81A	0.98
U72A G73A	1.28
U72A G73C	1.25
G70A C71U	0.41
G70A C71G	0.23
G73U U76C	1.21
C71A A77U	0.36
U67C G70A	0.18
U67C G70C	0.39
U67C G70U	0.26
C71G U80G	0.4
U67G G70C	0.21
G73U U80C	1.28
U69A C71G	0.22
U69A C71U	0.33
U67G A75U	0.6
U69A U74A	0.55
U69A U74C	0.96
U67C U74A	0.31
U67C U74C	0.37
C68G U78C	0.69
C68A G73U	0.85
C68A U72A	0.4
C68A U72C	0.2

Variant	self-cleavage
U74C C81U	1.23
U74C C81A	1.26
G73C U80C	1.29
G73A U74A	1.25
U72A U74A	1.34
U72A U74C	1.16
U69A G70A	0.24
U69G G73A	0.98
U69G C79U	0.72
C71G U72C	0.44
U69G A77G	0.78
U69G A77U	0.27
U67G U78A	0.67
U67G U78C	0.3
U72C C81U	1.23
U72C C81A	1.05
G70A U78A	0.43
G70A U78G	0.46
G70A U78C	0.8
C68U A75U	1.02
C68U A75G	0.67
C68U U80C	1.08
G70C U76A	0.11
U67A C79A	0.82

Variant	self-cleavage
C71A U72A	0.22
C71A U72C	0.41
G70C A77G	0.49
U67C U78G	0.12
U67C U78A	0.29
U67C U78C	0.35
U69C U74A	0.55
U69C U74C	0.74
U69C U74G	0.88
U69C C81U	0.5
U69C C81G	0.89
U69C C81A	1.16
G70A U80A	1
G70A U80C	0.45
G73A U80A	1.25
G73A U80C	1.36
G73A U78C	1.32
U67C U76C	0.3
U67C U76A	0.3
C71U U76C	0.84
U67G A77C	0.32
C68A U69C	0.17
C68A U69G	0.42
C68A U69A	0.25

Variant	self-cleavage
U69C U78G	0.61
U69C U78A	0.66
U69C U78C	0.69
U67A U72C	0.49
U67A U72G	0.35
U67A U72A	0.38
G70C U72C	0.31
U72G U76C	0.97
U72G U76A	0.54
U69G U76A	0.94
U69G U76C	0.98
U74A A75C	1.44
U74A A75U	1.29
U74A A75G	1.31
U67G C68U	0.44
U69G U80G	0.61
U69G U80A	0.88
U69G U80C	0.82
U67A A77U	0.39
C71U	0.68
C71G	0.42
C71A	0.33
U72G A77U	0.71
U72G A77G	1

Variant	self-cleavage
U72C A75U	1.25
U72C A75G	1.14
C71A U78C	0.49
C71A U78G	0.11
U69A G73A	1.16
U69A G73U	0.93
U69A G73C	0.65
U74C	1.23
U74A	1.25
U67G U80C	0.34
U67G U80A	0.4
G73C U78G	1.23
U67G U74C	0.6
U69C C79U	0.74
U69C C79G	0.72
C71A U80A	0.37
C71A U80C	0.63
U67A C68U	0.33
U74A U78A	1.18
U74A U78C	1.23
U72A A77U	0.89
U72A A77G	1.02
U72A U80G	0.99
U72A U80C	1.29

Variant	self-cleavage
U72A U80A	1.11
U67A G70A	0.45
U67A G70C	0.23
U74A U76C	1.34
U67C G73A	0.34
U67C G73C	0.46
U67C G73U	0.46
G70U U74C	0.26
U72G U80C	1.19
U69A A75G	0.53
U69A A75C	0.55
U69A A75U	0.66
U67C A77U	0.34
U67C A77G	0.3
G70A U74C	0.69
G70A U74A	0.73
G70A U72A	0.33
G70A U72C	0.42
U69G U72A	0.35
U69G U72C	0.44
U67C A75U	0.26
U67C A75G	0.35
U72C U74G	1.25
U72C U74C	1.22

Variant	self-cleavage
U72C U74A	1.24
U72A A75U	1.22
U72A A75G	1.12
U72A A75C	0.78
U69G U74G	0.97
U69G U74C	0.38
C68U U72A	0.35
C68U U72G	0.95
C68U U72C	0.93
G70C U80C	0.22
G73U C79U	1.32
C71G U78C	0.36
U72G A75G	1.2
U72G U78A	1.13
U72G U78C	1.01
U72G U78G	1
U67C	0.32
U67G	0.4
U67C U80C	0.4
U67C U80A	0.32
C71U U80C	1.23
C71U U80A	0.72
C68G A77G	0.61
U67C U72A	0.33

Variant	self-cleavage
U67C U72C	0.29
U67C U72G	0.22
G73A A75G	1.19
G70A A77U	1.07
G70A A77G	0.53
U69A U76A	0.84
U69A U76G	0.7
U69A U76C	0.7
C68U U69C	0.43
C68U U69G	0.39
C68U U69A	0.22
U69A U78C	0.75
U69A U78G	0.39
U69A U78A	0.92
U67C U69A	0.33
U67C U69G	0.45
U67C U69C	0.32
U74C A75U	1.26
U74C A75G	1.25
U74C C79G	1.45
U74C C79A	1.31
G70U U78A	0.48
